Measured values taken from the Immune Epitope Database (IEDB).

Columns and labels:
[1] = biological target: HLA-A*02:01; experiment: IEDB peptide-MHC binding, purified MHC/competitive/radioactivity; filed as Kd, often an IC50 or EC50 that approximates it; ≥ and ≤ were set here for values at or beyond the usual limits of such assays
[2] = biological target: HLA-B*40:01; experiment: as above
[3] = biological target: HLA-A*24:02; experiment: IEDB peptide-MHC binding, purified MHC/competitive/fluorescence; ≥ and ≤ were set here for values at or beyond the usual limits of such assays
[4] = biological target: HLA-A*23:01; experiment: IEDB peptide-MHC binding, purified MHC/competitive/radioactivity; filed as Kd, often an IC50 or EC50 that approximates it; ≥ and ≤ were set here for values at or beyond the usual limits of such assays
[5] = biological target: HLA-A*24:02; experiment: as above
[6] = biological target: HLA-B*08:01; experiment: as above
[7] = biological target: HLA-B*44:02; experiment: as above
[8] = biological target: HLA-B*44:03; experiment: as above; conditions: source organism: Dengue virus 2 Jamaica/1409/1983
[9] = biological target: HLA-A*01:01; experiment: as above; conditions: source organism: Dengue virus 1 Brazil/97-11/1997
[10] = biological target: HLA-A*26:01; experiment: as above
[11] = biological target: HLA-A*30:01; experiment: as above
[12] = biological target: HLA-A*30:02; experiment: as above; conditions: source organism: Dengue virus 4 Philippines/H241/1956
[13] = biological target: HLA-A*02:01; experiment: IEDB peptide-MHC binding, purified MHC/competitive/fluorescence; ≥ and ≤ were set here for values at or beyond the usual limits of such assays
[14] = biological target: HLA-B*51:01; experiment: IEDB peptide-MHC binding, purified MHC/competitive/radioactivity; filed as Kd, often an IC50 or EC50 that approximates it; ≥ and ≤ were set here for values at or beyond the usual limits of such assays; conditions: source organism: Dengue virus 1 Singapore/S275/1990
[15] = biological target: HLA-A*03:01; experiment: IEDB peptide-MHC binding, purified MHC/direct/fluorescence; filed as Kd, often an IC50 or EC50 that approximates it; ≥ and ≤ were set here for values at or beyond the usual limits of such assays; conditions: source organism: SARS-CoV1
[16] = biological target: HLA-A*11:01; experiment: as above; conditions: source organism: SARS-CoV1
[17] = biological target: HLA-A*31:01; experiment: as above; conditions: source organism: SARS-CoV1
[18] = biological target: HLA-B*27:05; experiment: as above; conditions: source organism: SARS-CoV1
[19] = biological target: HLA-A*02:03; experiment: IEDB peptide-MHC binding, purified MHC/competitive/radioactivity; filed as Kd, often an IC50 or EC50 that approximates it; ≥ and ≤ were set here for values at or beyond the usual limits of such assays; conditions: source organism: Homo sapiens
[20] = biological target: HLA-A*02:01; experiment: IEDB peptide-MHC binding, purified MHC/direct/fluorescence; filed as Kd, often an IC50 or EC50 that approximates it; ≥ and ≤ were set here for values at or beyond the usual limits of such assays; conditions: source organism: SARS-CoV1
[21] = biological target: HLA-A*69:01; experiment: as above; conditions: source organism: SARS-CoV1
[22] = biological target: HLA-B*15:01; experiment: as above; conditions: source organism: SARS-CoV1
[23] = biological target: HLA-A*33:01; experiment: IEDB peptide-MHC binding, purified MHC/competitive/radioactivity; filed as Kd, often an IC50 or EC50 that approximates it; ≥ and ≤ were set here for values at or beyond the usual limits of such assays; conditions: source organism: SARS coronavirus Tor2
[24] = biological target: HLA-A*68:01; experiment: as above; conditions: source organism: SARS coronavirus Tor2
[25] = source organism: Dengue virus 4 Philippines/H241/1956
[26] = source organism: Dengue virus 2 Jamaica/1409/1983
[27] = source organism: Vaccinia virus WR
[28] = source organism: Vaccinia virus Copenhagen
[29] = source organism: Dengue virus 1 Brazil/97-11/1997
[30] = source organism: Dengue virus 3 Martinique/1243/1999
[31] = source organism: Lassa virus Josiah
[32] = source organism: Zaire ebolavirus

ILDKVLVHP
Kd ([1]; source organism: Homo sapiens): 4080 nM

AEGVITQDDM
Kd [2, 25]: 1310 nM

DKFRKSSFF
IC50 ([3]; source organism: Sudan ebolavirus): 52200 nM

NWLNNNTQF
Kd [4, 26]: 716 nM | Kd [5, 26]: 88 nM

TVYAKFASL
Kd [6, 27]: 1.64 nM

CETCVYNMM
Kd [2, 26]: 52.1 nM | Kd [7, 26]: 92.2 nM

REEEEAGVL
Kd [2, 26]: 3.23 nM

SEMIIPKNFA
Kd [2, 26]: 8440 nM | Kd [7, 26]: 12 nM | Kd [8]: 25 nM

AYTIGTTHF
Kd [4, 26]: 126 nM | Kd [5, 26]: 774 nM

MMRNRTKPI
Kd [6, 28]: 1.49 nM

ETWALRHPGF
Kd [9]: ≥ 41200 nM | Kd [10, 29]: 666 nM | Kd [11, 29]: 1900 nM

NEMILLTMK
Kd [7, 30]: 824 nM

RRVTRKHMIL
Kd [6, 25]: 64 nM

EKTKTDFGFY
Kd [10, 25]: 9240 nM | Kd [12]: 20.1 nM

CTILAAVSVS
Kd [10, 26]: ≥ 55900 nM | Kd [11, 26]: 2830 nM

QREIFSAWI
IC50 ([3]; source organism: Variola virus): ≥ 76300 nM

SMLSIFNIV
Kd [6, 27]: ≥ 77700 nM

QMQRKHGGML
Kd [6, 29]: 436 nM

SYLAGAGLLF
Kd [4, 26]: 0.709 nM | Kd [5, 26]: 6.22 nM

SSQMTSTFI
IC50 [13, 28]: ≥ 72600 nM | IC50 [3, 28]: ≥ 70900 nM

REIVVPCRNQ
Kd [2, 29]: 228 nM

NLLTTPKFT
Kd ([1]; source organism: Human alphaherpesvirus 1 strain 17): 500 nM

GMSGGNQGA
Kd [1, 31]: 12500 nM

KKMIRPQPM
Kd [6, 29]: 188 nM

YENLKYTVII
Kd [2, 30]: 2.82 nM

MFLIAENKI
Kd ([4]; source organism: Dengue virus 1 Singapore/S275/1990): 913 nM | Kd [14]: 2760 nM

MDSRPQKIW
IC50 [13, 32]: ≥ 191000 nM | IC50 [3, 32]: 67800 nM

GFKKRVNVF
Kd [6, 27]: 110 nM

EERDIPERSW
Kd [7, 29]: 72.4 nM

RHYSASFKK
Kd [15]: 341 nM | Kd [16]: 705 nM | Kd [17]: 1250 nM | Kd [18]: 282 nM

ALPHAILRL
Kd ([1]; source organism: Homo sapiens): 128 nM | Kd [19]: 7.87 nM

PTAWQSVGH
IC50 [13, 32]: ≥ 264000 nM | IC50 [3, 32]: 28700 nM

HEMYWVSCG
Kd [7, 29]: 37.4 nM

TISGVLWQV
Kd ([1]; source organism: Hepatitis C virus subtype 2b): 35 nM

QAFTFSPTYK
Kd ([1]; source organism: Hepatitis B virus subtype adw2): ≥ 35000 nM

VLQTFMRMA
Kd [1, 31]: ≥ 5000 nM

SPKERLPYI
Kd [6, 27]: 1040 nM

YPNVCIFGN
IC50 ([3]; source organism: Vaccinia virus): 35500 nM

CSRLQTCIK
Kd [11, 28]: 44 nM

REDLWCGSL
Kd [2, 25]: 2.35 nM

KETACLGKSY
Kd [8]: 23.6 nM

FFKCFRYVF
Kd [6, 28]: 10.9 nM

NVWEVEDYGF
Kd [4, 30]: 175 nM

TSFFLWVII
IC50 [13, 32]: ≥ 503000 nM | IC50 [3, 32]: ≥ 131000 nM

LWVAEIQPQW
Kd [4, 25]: 1380 nM | Kd [5, 25]: 312 nM

KLFAAETLK
Kd [20]: ≥ 29200 nM | Kd [17]: 173 nM | Kd [21]: 15900 nM | Kd [22]: ≥ 21300 nM | Kd [18]: 2180 nM | Kd [23]: 13600 nM | Kd [24]: 399 nM
